# Results as given in US20260126450A1.
# What was measured:
# [1] = biological target: surface HIV-1 Env BG505 SOSIP (HIV-1 BG505.DS-SOSIP trimeric antigen), membrane-bound on HEK293 cells (HIV-1); experiment: FACS, anti-Kappa-FITC stain of HEK293 cells co-expressing surface Env and secreted IgG1 after 24 h in droplets
# [2] = biological target: surface HIV-1 Env BG505 SOSIP (HIV-1 BG505.DS-SOSIP trimeric antigen), membrane-bound on HEK293 cells (HIV-1); experiment: droplet co-expression, FACS sort for anti-Kappa-FITC, NGS of VH genes
substance,measurement,setting,value
VRC01 (antibody),fold anti-Kappa binding against cells expressing 1-20,[1],> 5 fold
same,Enrichment Ratio (FITC+ prevalence / FITC- prevalence),[2],2
